Reference: the nanobody polyreactivity screen of Harvey et al. (2022)

Assay: yeast display, Sf9 membrane polyspecificity reagent, FACS + sequencing; frameworks hold sequencing errors
Summary of the method: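 A synthetic nanobody library was expressed on Saccharomyces cerevisiae BJ5465 by galactose induction for 36–48 hours. The library was stained for 1 hour at 4 °C with 10% biotinylated, detergent-solubilized Sf9 membrane reagent and enriched with streptavidin microbeads before FACS. Low and high (top ~1%) gates were set on anti-HA fluorescence for expression and streptavidin fluorescence for reagent binding, and each polyreactivity label reflects the gate of origin.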

Sequence | polyreactivity (PSR sort gate)
QVQLVESGGGLVQAGGSLRLSCAASGSIFGSNAMGWYRQARGKERELVASISKRGGSTYYADSVKGRFTISRDNAKNTVYVQMNSLKPEDTAVYSCAARSYYNGKISRVGYWGQGTQVTVSS | high polyreactivity
QVQLVESGGGLVQAGGSLRLSCAASGSIFGSYAMGWYRQAPGKERELVAAIRSGGGTYYADSVKGRFTISRDNAKNTVYLQMNSLKPEDTAVYYCAAGDGFYFSFYIYDYWGQGTQGTVSS | low polyreactivity
QVQLVESGGGLVQAGGSLRLSCAASGSIFGSYAMGWYRQAPGKERELVAAISRSGGRTYYADSVKGRFTISRDNAKYTVYLQMNSLKPEDTAVYYCAADTYIGYDYWGQGTQVTVSS | high polyreactivity
QVQLVESGGGLVQAGGSLRLSCAASGSIFGTNGMGWYRQAPGKERELVAAITRRGGSTYADSVKGRFTISRDNAKNTVYLQMNSLKPEDTAVYYCAVDQGYVVRLAWIYGYWGQGTQVSVSS | low polyreactivity
QVQLVESGGGLVQAGGSLRLSCAASGSIFGTNTMGWYRQAPGKEREFVAVITGSTTSTYYADSVKGRFTISRDNAKNTVYLQMNSLKPEDTAVYYCPTDYWWDLFEYDYWGQGTQVTVSS | high polyreactivity
QVQLVESGGGLVQAGGSLRLSCAASGSIFGTYAMGWYRQAPGKAREFVADISAIGTSTYYADSVKGRFTISRDNAKNTVYLQMNSLKPEDTAVYYCAAESFDTVEYDYWGQGTQVTVSS | low polyreactivity
QVQLVESGGGLVQAGGSLRLSCAASGSIFGTYPMGWYRQAPGKERELVAAITRRGGSTFYADSVKGRFTISRDNAKNTVYLQMNSLKPEDTAVYYCAAPPYYWGQGTQVTVSS | high polyreactivity
QVQLVESGGGLVQAGGSLRLSCAASGSIFGTYTMGWYRQAPGKERELVAAISRSGTSTYYADSVKGRFTISRDNAKNTVYLQMNSLKPEDTAVYYCAASPDPYWRRMDYWGQGTQVTVSS | high polyreactivity
QVQLVESGGGLVQAGGSLRLSCAASGSIFGTYTMGWYRQAPGKERELVASISRRGGSTYYADSVKGRFTISRDNAKNTVYLQMNSLKPEDTAVYYCAKPVYYLPGEYDYWGQGTQVTVSS | high polyreactivity
QVQLVESGGGLVQAGGSLRLSCAASGSIFGVNAMGWYRQAPGKERELVAAISRGTSTSYADSVKGRFTISRDNAKNTVYLQMNSLKPEDTAVYYCAAEVYWRGWWYGYWGQGTQVTVSS | high polyreactivity
QVQLVESGGGLVQAGGSLRLSCAASGSIFGVYAMGWYRQAPGKERELVAAISQSGGRTYYADSVKGRFTISRDNAKNTVYLQMNSLKPEDTAVYYCAAVVFNVYRRYWGQGTQVTVSS | high polyreactivity
QVQLVESGGGLVQAGGSLRLSCAASGSIFGVYDMGWYRQAPGKERELVAVINSNGGSTYYADSVKGRFTISRDNAKNTVYLQMNSLNPEDTAVYYCAADYQSYVYIGYGYWGQGTQVTVSS | low polyreactivity
QVQLVESGGGLVQAGGSLRLSCAASGSIFGVYTMGWYRQAPGKERELVAAITSAGSTYAYSVKGRFTISRDNAKNTVYLQMNSLKPEDTAVYYCNAQSVLLSLRVELREPHEYWGQGTQVTVSS | low polyreactivity
QVQLVESGGGLVQAGGSLRLSCAASGSIFGWNTMGWYRQAPGKERELVAAITWTGGRTYYADSVKGRFTISRDNAKNTVYLQMNSLKPEDTAVYYCNALRVIRGGIKGDYWGQGTQVTVSS | high polyreactivity
QVQLVESGGGLVQAGGSLRLSCAASGSIFGWYAMGWYRQAPGKERELVAAISSSDGSTYYADSVKGRFTISRDNAKNTVYLQMNSLKPEDTAVYYCATDSAFTYAQYDYWGQGTQVTVSS | low polyreactivity
QVQLVESGGGLVQAGGSLRLSCAASGSIFGWYAMGWYRQAPGKVRELVATITDRGGRTYYADSVKGRFTISRDNAKNTVYLQMNSLTPEDTAVYDCAADAWPFEAESDSWGQGTQVTVSS | low polyreactivity

Sequence | polyreactivity (PSR sort gate)
QVQLVESGGGLVQAGGSLRLSCAASGSIFGWYVMGWYRQEAGKERELVAANSSVGSTYYADSVKGRFTISRDNAKNTVYLQMNSLKPEDTAVYYCAKLRYPYLFWDDSEYWGQGTQVTVSS | low polyreactivity
QVQLVESGGGLVQAGGSLRLSCAASGSIFGYAMGWYRQAPGKARELVAAISFSGVSTYYADSVKGRFTITRDNAKNTVYLQMNSLKPEDTAGYYCNAYSDGDEDYWGQGTQVNVSS | low polyreactivity
QVQLVESGGGLVQAGGSLRLSCAASGSIFGYAMGWYRQAPGKERELVAAITVSGGRTYYADSVKGRFTISRDNAKNTVYLQMNSLKPEDTAVYYCAAYYIKGYSPGYWGQGTQVTVSS | high polyreactivity
QVQLVESGGGLVQAGGSLRLSCAASGSIFGYNAMGGYRHAPGKEREFVAAINSGGSTYYADSVKGRFTISRDNAKITVYLQLNSLKPEDTAVYYCRRRNVYSTRRYEYWGQGTQVTVSS | high polyreactivity
QVQLVESGGGLVQAGGSLRLSCAASGSIFGYNAMGWYRQAPGKERELVAAINYNGGRTYYADSVKGRFTISRDNAKNTVYLQMNSLKPEDTAVYYCATQGRSLYYRYDYWGQGTQVTVSS | high polyreactivity
QVQLVESGGGLVQAGGSLRLSCAASGSIFGYNAMGWYRQAPGKERELVAAIRRSGSSTYYADSVKGRFTISRDNAKNTVYLQMNSLKPEDTAVYYCNRVPRPVADQEYDYWGQGTQVTVSS | low polyreactivity
QVQLVESGGGLVQAGGSLRLSCAASGSIFGYNAMGWYRQAPGKERELVAAISLSGSSTYYADSVKGRFTISRDNAKNTVYLQMNSLKPEDTAVYYCAALYQWRRVFYTSYGYWGQGTQVTGSS | high polyreactivity
QVQLVESGGGLVQAGGSLRLSCAASGSIFGYNAMGWYRQAPGKERELVAAISLTTGSTYYADSVKGRFTISRDNAKNTVYLQMNSLKPEDTAVYYCAAVDADYYYWGQGTQVTVSS | high polyreactivity
QVQLVESGGGLVQAGGSLRLSCAASGSIFGYNDMGWYRQAPGKERELVAAITTSGDSTYYADSVKGRFTISRDNAKNTVYLQMTSLKPEDTAVYYCNGDGEVVDWYHPYYVEYDYWGQGTQVTVSS | low polyreactivity
QVQLVESGGGLVQAGGSLRLSCAASGSIFGYNTMGWYRQAPGKERDLVADISVSGDDTYYADSVKGRFTISRDNAKITVYLQMNSLKPEDTAVYYCNADEYYGYYHTYDYWGQGTQVTVSS | low polyreactivity
QVQLVESGGGLVQAGGSLRLSCAASGSIFGYNVMGWYRQAPGKERELVAAINYSGGRTYYADSVKGRFTISRDNAKNTVYLEMNSLKPEDTAVYYCAAVPLSRYTVFNYDYWGQGTQVTVSS | high polyreactivity
QVQLVESGGGLVQAGGSLRLSCAASGSIFGYNVMGWYRQAPGKEWELVAAITYSGGSTYYADSVKGRFTISRDNAKNTVYLQMNSLKPEDTAVFYCNAVTLRRIYSNPEYDSWGQGTQVSVSS | high polyreactivity
QVQLVESGGGLVQAGGSLRLSCAASGSIFGYYAMGWSRQAPGKEREVVAAISASGGSTYYADSVKGRFTISRDTAKNTVYLQMNSLKPEDTAVYYCAAVRSVTYIWARYPYGLEYWGQGTQVTVSS | high polyreactivity
QVQLVESGGGLVQAGGSLRLSCAASGSIFGYYAMGWYRPAPGKERELVAAISGSAGTTYYADSVKGRFTISRDNAKNTVYLQMNSLKPEDTAVYYCAKYYPYIQADYGYDYWGQGTQVTVSS | low polyreactivity
QVQLVESGGGLVQAGGSLRLSCAASGSIFGYYAMGWYRQAPGKEREFVATISTSGVSTYYADSVKGRFTISRDNAKNTVYLQMNSLKPEDTAVYYCNAYLWYTGWDYDGEDYWGQGTQVTVSS | low polyreactivity
QVQLVESGGGLVQAGGSLRLSCAASGSIFGYYAMGWYRQAPGKERELVAAIDSGGSTYYADSVKGRFTISRDNAKNTVYLQMNSLKPEDTAVYYCATDYSGLRYDYWGQGTQVTVSS | low polyreactivity
